Source: PMC10781630, “Structural basis of Gabija anti-phage defence and viral immune evasion” (Nature, 2023)

T1: GajA E379A;GajB (Bacillus cereus VD045;Bacillus cereus …, UniProt J8H9C1;J8HQ06 1-578;1-494, E379A|)
T1 sequence 1: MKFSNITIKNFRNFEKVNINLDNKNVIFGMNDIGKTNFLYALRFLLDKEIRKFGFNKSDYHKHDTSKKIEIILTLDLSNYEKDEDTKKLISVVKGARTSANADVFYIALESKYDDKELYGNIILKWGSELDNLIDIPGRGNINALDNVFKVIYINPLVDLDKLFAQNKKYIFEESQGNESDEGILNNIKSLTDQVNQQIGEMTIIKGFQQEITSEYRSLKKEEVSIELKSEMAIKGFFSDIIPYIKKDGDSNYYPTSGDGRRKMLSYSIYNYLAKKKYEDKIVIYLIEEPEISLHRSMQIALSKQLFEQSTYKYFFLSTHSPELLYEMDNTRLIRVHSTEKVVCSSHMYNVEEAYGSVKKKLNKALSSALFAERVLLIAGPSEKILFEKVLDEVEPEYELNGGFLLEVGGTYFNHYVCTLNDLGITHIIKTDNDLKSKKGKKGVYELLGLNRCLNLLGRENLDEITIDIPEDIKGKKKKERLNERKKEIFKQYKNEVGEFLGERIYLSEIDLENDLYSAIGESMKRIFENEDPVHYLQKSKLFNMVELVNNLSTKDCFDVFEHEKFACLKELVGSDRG
T1 sequence 2: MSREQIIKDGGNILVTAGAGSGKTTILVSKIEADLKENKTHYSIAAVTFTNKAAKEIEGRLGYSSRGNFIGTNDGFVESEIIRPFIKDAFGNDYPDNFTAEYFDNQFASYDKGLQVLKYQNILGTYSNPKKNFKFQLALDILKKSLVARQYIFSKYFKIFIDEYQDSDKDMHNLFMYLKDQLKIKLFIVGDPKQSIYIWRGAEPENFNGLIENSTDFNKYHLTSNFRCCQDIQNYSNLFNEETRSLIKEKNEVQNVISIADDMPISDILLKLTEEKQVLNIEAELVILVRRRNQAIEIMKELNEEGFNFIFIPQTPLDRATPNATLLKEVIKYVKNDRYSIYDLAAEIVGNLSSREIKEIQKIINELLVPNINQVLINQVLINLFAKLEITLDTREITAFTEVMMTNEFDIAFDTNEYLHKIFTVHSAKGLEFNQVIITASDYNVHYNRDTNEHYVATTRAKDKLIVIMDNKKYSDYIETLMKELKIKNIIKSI

T2: GajA;GajB (Bacillus cereus VD045;Bacillus cereus …, UniProt J8H9C1;J8HQ06 1-578;1-494, |)
T2 sequence 1: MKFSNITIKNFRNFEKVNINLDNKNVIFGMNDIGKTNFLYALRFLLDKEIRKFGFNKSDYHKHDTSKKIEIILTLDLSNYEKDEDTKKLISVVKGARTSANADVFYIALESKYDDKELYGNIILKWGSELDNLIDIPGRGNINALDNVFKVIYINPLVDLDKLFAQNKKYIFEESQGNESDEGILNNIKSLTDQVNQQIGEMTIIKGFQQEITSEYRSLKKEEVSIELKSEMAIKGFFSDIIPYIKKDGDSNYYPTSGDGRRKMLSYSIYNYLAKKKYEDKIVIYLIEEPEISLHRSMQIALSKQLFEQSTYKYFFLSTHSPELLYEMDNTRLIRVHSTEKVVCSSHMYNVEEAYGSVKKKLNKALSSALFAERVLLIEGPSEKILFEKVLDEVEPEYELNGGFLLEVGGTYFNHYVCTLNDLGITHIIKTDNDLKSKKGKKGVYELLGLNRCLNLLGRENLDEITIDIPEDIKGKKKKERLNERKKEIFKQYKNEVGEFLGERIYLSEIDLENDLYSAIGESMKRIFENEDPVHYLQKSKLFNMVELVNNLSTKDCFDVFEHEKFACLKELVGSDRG
T2 sequence 2: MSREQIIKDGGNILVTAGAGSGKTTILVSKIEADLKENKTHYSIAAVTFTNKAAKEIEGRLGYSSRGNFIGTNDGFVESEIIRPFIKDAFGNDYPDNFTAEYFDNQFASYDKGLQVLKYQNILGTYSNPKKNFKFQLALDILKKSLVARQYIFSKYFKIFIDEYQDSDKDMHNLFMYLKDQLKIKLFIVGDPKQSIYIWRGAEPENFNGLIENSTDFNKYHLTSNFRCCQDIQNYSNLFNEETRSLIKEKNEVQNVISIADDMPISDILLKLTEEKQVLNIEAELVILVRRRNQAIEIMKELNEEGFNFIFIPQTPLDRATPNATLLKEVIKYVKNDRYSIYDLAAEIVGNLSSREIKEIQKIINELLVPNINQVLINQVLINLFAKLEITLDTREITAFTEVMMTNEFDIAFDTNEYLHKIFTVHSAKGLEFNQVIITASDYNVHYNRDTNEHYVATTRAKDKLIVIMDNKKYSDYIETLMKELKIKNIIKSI


Tests used:
[1] = molecular target: the molecule itself; assay: crystal structure; co-expressed and co-purified GajAB, 3.0 Å; hanging drop, 18 °C, 100 mM HEPES-NaOH pH 7.5, 2.4% PEG-400, 2.2 M ammonium sulfate
GajA E379A;GajB = molecular target: T1, GajA E379A;GajB; assay: EMSA; 5 mM Ca2+; details: protein: recombinant;recombinant; tags: N-terminal 6xHis-SUMO2-5xGS, cleaved by SENP2;none in co-expressed complex; chain copies: 4;4; label: none (ethidium bromide post-stain)
GajA;GajB = molecular target: T2, GajA;GajB; assay: EMSA; 5 mM Ca2+; details: protein: recombinant;recombinant; chain copies: 4;4; label: none (ethidium bromide post-stain)

Binder | stoichiometry N [1] | binding result (GajA E379A;GajB) | binding result (GajA;GajB)
Bacillus cereus VD045 GajA, co-expressed with GajB, tag removed (subunit of the GajAB complex) (enzyme, GajA, Bacillus cereus VD045, IMG ID 2519684552; the 5×GS linker may stay on GajA after SENP2 cleavage; also called BcGajA; source: E. coli BL21(DE3) strains, co-expressed with GajB, purified (Ni-NTA, SUMO2 cleavage by hSENP2, SEC); not shown: 6×His-SUMO2-5×GS, N-terminal, cleaved) KFSNITIKNFRNFEKVNINLDNKNVIFGMNDIGKTNFLYALRFLLDKEIRKFGFNKSDYHKHDTSKKIEIILTLDLSNYEKDEDTKKLISVVKGARTSANADVFYIALESKYDDKELYGNIILKWGSELDNLIDIPGRGNINALDNVFKVIYINPLVDLDKLFAQNKKYIFEESQGNESDEGILNNIKSLTDQVNQQIGEMTIIKGFQQEITSEYRSLKKEEVSIELKSEMAIKGFFSDIIPYIKKDGDSNYYPTSGDGRRKMLSYSIYNYLAKKKYEDKIVIYLIEEPEISLHRSMQIALSKQLFEQSTYKYFFLSTHSPELLYEMDNTRLIRVHSTEKVVCSSHMYNVEEAYGSVKKKLNKALSSALFAERVLLIEGPSEKILFEKVLDEVEPEYELNGGFLLEVGGTYFNHYVCTLNDLGITHIIKTDNDLKSKKGKKGVYELLGLNRCLNLLGRENLDEITIDIPEDIKGKKKKERLNERKKEIFKQYKNEVGEFLGERIYLSEIDLENDLYSAIGESMKRIFENEDPVHYLQKSKLFNMVELVNNLSTKDCFDVFEHEKFACLKELVGSDRG | 4 | – | –
56-bp target dsDNA (dsDNA) DNA 1: TTTTTTTTTTTTTTTTTAATAACCCGGTTATTTTTTTTTTTTTTTTTTTTTTTTTT DNA 2: AAAAAAAAAAAAAAAAAAAAAAAAAATAACCGGGTTATTAAAAAAAAAAAAAAAAA | – | binds | binds
56-bp scrambled dsDNA (dsDNA) DNA 1: TTTTTTTTTTTTTTTTTGACATTACATTCAGTTTTTTTTTTTTTTTTTTTTTTTTT DNA 2: AAAAAAAAAAAAAAAAAAAAAAAAACTGAATGTAATGTCAAAAAAAAAAAAAAAAA | – | binds | –
